Measurements from patent US11332546B2, “Protease inhibitory antibodies and methods of use thereof” (The Regents of The University of California, priority 2019, dated 2022).
One block for each molecule: values may come before it.

How the values were obtained:
cathepsin B [1] = target: T1, cathepsin B (Homo sapiens, UniProt P07858); test: FRET peptide inhibition assay, cathepsin B (M-2595); format: biochemical; conditions: Fab; for Ki: cathepsin B, FRET peptide, read-out: Inhibition Potency KI
T1 construct: human cathepsin B (residue 66-339); hexahistidine (C); made in house; host or cells: E. coli (periplasm)
Description: (§3) For inhibition tests, 1 μM Fabs were 2-fold serially diluted into protease specific assay buffer and incubated with 1-10 nM proteases for 30 min at room temperature. […] Inhibition percentages at given concentrations were calculated by comparing the initial reaction rates in the presence or absence of inhibitor. IC50 was determined as the concentration that achieved 50% inhibition, and KI values were calculated using KI=IC50/(S/Km+1). Vmax and Km at various Fab concentrations were measured to determine the inhibition type. FRET inhibition assays were also used for selectivity tests of isolated Fabs with the relevant proteases.

cathepsin K = target: T2, cathepsin K (Homo sapiens, UniProt P43235); test: FRET inhibition selectivity test, cathepsin K; format: biochemical; conditions: same Fab concentrations as for cathepsin B
T2 construct: hexahistidine (C); made in house; host or cells: E. coli (periplasm)
T2 sequence (P43235 115-329): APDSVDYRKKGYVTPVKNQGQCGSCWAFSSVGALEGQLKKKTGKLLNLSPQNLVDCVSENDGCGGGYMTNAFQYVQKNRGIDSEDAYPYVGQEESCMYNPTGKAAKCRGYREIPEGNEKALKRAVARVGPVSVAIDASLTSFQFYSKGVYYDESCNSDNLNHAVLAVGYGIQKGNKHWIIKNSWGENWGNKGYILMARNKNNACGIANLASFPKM
Description: as §3

cathepsin B [2] = target: T1, cathepsin B; test: Binding kinetics by biolayer interferometry, Fabs on cathepsin B; conditions: Fab, read-out: Binding Affinity KD
Description: Binding kinetics of produced antibodies towards associated protease targets were analyzed by using biolayer interferometry (ForteBio). For Fabs, biotinylated proteases were immobilized on streptavidin biosensors, and Fab binding to the sensors in absence of protease was monitored as backgrounds. For IgGs, protein A sensors were used and protease bindings without IgG were checked as backgrounds. kon and koff were determined for KD calculations. […] Fab in vitro stability was tested by incubating 1 μM Fab with 1 μM of the respective protease in the assay buffer for 12 hours and the samples were analyzed by SDS-PAGE.

[3] = system: HEK293F cells expressing APP571-696; test: Aβ40 formation in HEK293F cells expressing APP571-696 (ELISA); format: cell-based; conditions: HEK293 cells expressing APP, IgG 72 h, dose-dependent
Description: For amyloid precursor protein (APP) degradation studies, APP571-696 was cloned to the C-terminal of maltose binding protein (MBP) for E. coli expression and purified using amylose resin (NEB). 5 μM purified MBP-APP was incubated with 1 μM BACE1-Fc in the absence or presence of 1 μM IgG in BACE1 assay buffer at 37° C. for 24 h. In addition, APP571-696 was cloned to a pcDNA plasmid carrying a SPE leader for secretion expression. Transfected HEK293F cells were cultured in Expi293 media for 72 hrs with the presence of 14-800 nM purified IgG. The supernatants were clarified by centrifugation and 0.45 μm filtration, and produced Aβ1-40 was quantified by ELISA (Abcam).

cdMMP-12 wt [4] = target: T3, cdMMP-12 wt (Homo sapiens, UniProt P39900); test: Fibronectin proteolysis inhibition, cdMMP-12 wt (western blot); format: biochemical; conditions: 6 μM Fab; 350 nM wt cdMMP-12, 200 nM fibronectin, 37° C.
T3 construct: hexahistidine (C); made in house; host or cells: E. coli BL21 (pET32b, cytoplasmic)
Description: Inhibition tests with macromolecular substrates 10 μg/mL FITC-conjugated elastin (AnaSpec) was incubated with 7 nM cdMMP-12 D4/wt and 2-2000 nM purified Fab in 50 mM Tris-HCl, 150 mM NaCl, 5 mM CaCl2), 100 μM ZnCl2 pH 7.5. Generated fluorescent signals were measured at 12 h with λEx of 490 nm and λEm of 520 nm. […] The samples were separated on 5% non-reducing SDS-PAGE and analyzed by western blotting with anti-Fibronectin antibody (Abcam) and chemiluminescent substrate (Thermo Scientific). […] Assays without cdMMP-12s or Fabs were performed as controls.

cdMMP-14 = cdMMP-14 (Homo sapiens, UniProt P50281); test: Bio-layer interferometry on cdMMP-14; format: binding; design: human MMP-14 (residue 114-320); hexahistidine (C); made in house; host or cells: E. coli periplasm; conditions: read-out: KD toward cdMMP-14
cdMMP-12 wt [5] = target: T3, cdMMP-12 wt; test: Elastin-FITC hydrolysis inhibition, cdMMP-12 wt; format: biochemical; conditions: 7 nM wt cdMMP-12, 37° C., 12 h
Description: Inhibition tests with macromolecular substrates 10 μg/mL FITC-conjugated elastin (AnaSpec) was incubated with 7 nM cdMMP-12 D4/wt and 2-2000 nM purified Fab in 50 mM Tris-HCl, 150 mM NaCl, 5 mM CaCl2), 100 μM ZnCl2 pH 7.5. Generated fluorescent signals were measured at 12 h with λEx of 490 nm and λEm of 520 nm. For inhibition assays on fibronectin, 200 nM fibronectin (Corning) was incubated with 200-350 nM cdMMP-12 wt and 2 μM GM6001 or 0.1-6 μM Fabs in 50 mM HEPES, 150 mM NaCl pH 7.5 at 37° C. for 2-4 h. The samples were separated on 5% non-reducing SDS-PAGE and analyzed by western blotting with anti-Fibronectin antibody (Abcam) and chemiluminescent substrate (Thermo Scientific). For inhibition assays on modified TEM-1 carrying cleavable sequence ([…] (SEQ ID NO:134)) and a N-terminal HA tag, 250 nM modified TEM-1 was incubated with 700 nM cdMMP-12 wt and 10 μM Fabs in 50 mM HEPES, 150 mM NaCl pH 7.5 at 37° C. for 4 h. The samples were separated on 12% non-reducing SDS-PAGE, and the modified TEM-1 was visualized by western blotting using anti-HA antibody (Invitrogen) and chemiluminescent substrate. Assays without cdMMP-12s or Fabs were performed as controls.

cdMMP-12 mutant D4 [6] = target: T4, cdMMP-12 mutant D4 (Homo sapiens, UniProt P39900, A167E/A173P/A252Q/H206S/I245T/K233R/M156E/N119Q/N126H/R135E/T215V/V161I/Y113D/Y132K); test: FRET peptide inhibition assay, cdMMP-12 D4; format: biochemical; conditions: cdMMP-12 D4, FRET peptide, 31-500 nM Fab
T4 construct: hexahistidine (C); made in house; host or cells: E. coli BL21, pET32b (cytoplasmic, soluble fraction)
Description: (§1) FRET peptide inhibition assays In 96-well assay plates (Corning), 60/250/350/10/10/30 nM of (cd)MMP-1/-7/-9/-12 D4/-12 wt/-14 were preincubated with 1 nM-1 μM purified Fabs for 30 min at room temperature then 1 μM substrate M-2350 (Bachem) was added. Generated fluorescent signals (λEx=328 nm, λEm=393 nm) were monitored at 37° C. to measure the initial velocities. To calculate inhibition constants (KIs), data were fit with the equations for slow tight-binding inhibitors. The inhibition type of the Fabs was determined using the initial velocities of cdMMP-12 D4 as a function of substrate concentration (250-2000 nM) at various Fab concentrations (31-500 nM). The values of Vmax and Km were derived from linearization in accordance with the Lineweaver-Burk equation.

cdMMP-9 [7] = test: FRET peptide inhibition assay, cdMMP-9 (Example 2); format: biochemical; conditions: FRET peptide; read-out: K1 toward cdMMP-9
Description: as §1

MMP-7 = target: T5, MMP-7 (Homo sapiens, UniProt P09237); test: FRET peptide inhibition assay, MMP-7; format: biochemical
T5 construct: purchased AnaSpec
T5 sequence (P09237 95-267): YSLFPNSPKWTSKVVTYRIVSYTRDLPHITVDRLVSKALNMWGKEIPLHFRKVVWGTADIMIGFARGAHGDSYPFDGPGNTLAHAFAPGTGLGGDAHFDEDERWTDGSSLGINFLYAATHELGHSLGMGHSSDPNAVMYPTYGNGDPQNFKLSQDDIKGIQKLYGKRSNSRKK
Description: as §1

MMP-1 = target: T6, MMP-1 (Homo sapiens, UniProt P03956); test: FRET peptide inhibition assay, MMP-1; format: biochemical
T6 construct: purchased AnaSpec
T6 sequence (P03956 100-469): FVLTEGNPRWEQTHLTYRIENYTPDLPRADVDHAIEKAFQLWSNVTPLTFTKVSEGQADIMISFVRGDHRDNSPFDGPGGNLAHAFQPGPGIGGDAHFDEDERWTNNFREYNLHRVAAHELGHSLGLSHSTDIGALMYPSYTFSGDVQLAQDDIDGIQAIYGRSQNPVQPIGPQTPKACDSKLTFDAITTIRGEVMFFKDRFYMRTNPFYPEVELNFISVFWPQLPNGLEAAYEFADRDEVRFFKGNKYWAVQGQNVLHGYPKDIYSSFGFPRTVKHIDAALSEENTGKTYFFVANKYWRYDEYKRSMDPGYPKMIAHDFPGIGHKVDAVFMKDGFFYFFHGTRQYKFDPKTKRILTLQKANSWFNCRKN
Description: as §1

cdMMP-12 wt [8] = target: T3, cdMMP-12 wt; test: FRET peptide inhibition assay, cdMMP-12 wt; format: biochemical; conditions: toward cdMMP-12 wild type
Description: as §1

cdMMP-12 wt [9] = target: T3, cdMMP-12 wt; test: Proteolytic stability of Fabs with cdMMP-12 wt; format: physicochemical; conditions: 2 μM Fab, 2 μM cdMMP-12 wt, 4 h, 37° C.
Description: (§2) Proteolytic stability tests 2 μM purified Fabs were incubated with 2 μM cdMMP-12 wt/D4 in 50 mM HEPES, 150 mM NaCl pH 7.5 at 37° C. for 4 h. Samples were analyzed by using 12% non-reducing SDS-PAGE and stained with Coomassie blue. Densitometric interpretation was conducted using a ChemiDoc imager (Bio-Rad).

cdMMP-12 mutant D4 [10] = target: T4, cdMMP-12 mutant D4; test: Proteolytic stability of Fabs with cdMMP-12 D4; format: physicochemical; conditions: 2 μM Fab, 2 μM cdMMP-12 D4, 4 h, 37° C.
Description: as §2

cdMMP-9 [11] = test: Bio-layer interferometry on cdMMP-9; format: binding; conditions: read-out: KD toward cdMMP-9

T3 sequence (P39900 106-263): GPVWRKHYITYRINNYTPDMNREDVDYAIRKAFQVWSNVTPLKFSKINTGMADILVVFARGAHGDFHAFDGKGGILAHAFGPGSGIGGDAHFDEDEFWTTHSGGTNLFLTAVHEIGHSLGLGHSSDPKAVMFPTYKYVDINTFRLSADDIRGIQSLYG
T4 sequence (P39900 106-263 Y113D/N119Q/N126H/Y132K/R135E/M156E/V161I/A167E/A173P/H206S/T215V/K233R/I245T/A252Q): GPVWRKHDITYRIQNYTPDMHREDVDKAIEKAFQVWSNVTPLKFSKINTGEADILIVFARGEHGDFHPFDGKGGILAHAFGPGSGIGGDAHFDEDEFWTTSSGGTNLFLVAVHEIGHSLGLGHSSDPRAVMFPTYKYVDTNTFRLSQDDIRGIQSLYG
Sequence of cdMMP-9 (P14780 with tags, fused parts or gaps DEL216-390 limits assumed): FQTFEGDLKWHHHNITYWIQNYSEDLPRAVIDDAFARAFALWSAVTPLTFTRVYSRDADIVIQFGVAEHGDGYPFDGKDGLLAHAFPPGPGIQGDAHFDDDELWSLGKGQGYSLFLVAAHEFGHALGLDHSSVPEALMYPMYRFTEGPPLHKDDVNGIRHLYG

Inhibition of cathepsin B (in words) (cathepsin B [1]): inhibited cathepsin B completely | Ki (cathepsin B [1]): 130 nM | Inhibition of cathepsin K (selectivity) (cathepsin K): but not cathepsin K | Kd (cathepsin B [2]): 190 nM
B1: Fab CBA2: anti-cathepsin B antibody clone; VL SEQ ID NO:108, VH SEQ ID NO:81, CDR-H3 SEQ ID NO:84 (antibody, V domains shown)
VH: EVQLVESGGGLVQPGGSLRLSCAASGFNIYYYSIHWVRQAPGKGLEWVAYIYSYYGSTYYADSVKGRFTISADTSKNTAYLQMNSLRAEDTAVYYCARYGYPGGYHFWGWWSSPYAFDYWGQGTLVTVSSAS
VL: DIQMTQSPSSLSASVGDRVTITCRASQSVSSAVAWYQQKPGKAPKLLIYSASSLYSGVPSRFSGSRSGTDFTLTISSLQPEDFATYYCQQWSSSWGYLITFGQGTKVEIKR

Inhibition of cathepsin B (in words) (cathepsin B [1]): inhibited cathepsin B completely | Ki (cathepsin B [1]): 200 nM | Inhibition of cathepsin K (selectivity) (cathepsin K): but not cathepsin K | Kd (cathepsin B [2]): 290 nM
B4: Fab CBA1: anti-cathepsin B antibody clone; VL SEQ ID NO:110, VH SEQ ID NO:85, CDR-H3 SEQ ID NO:87 (antibody, V domains shown)
VH: EVQLVESGGGLVQPGGSLRLSCAASGFNLYSSYIHWVRQAPGKGLEWVASIYPYSSSTSYADSVKGRFTISADTSKNTAYLQMNSLRAEDTAVYYCARGGGSWSAMDYWGQGTLVTVSSAS
VL: DIQMTQSPSSLSASVGDRVTITCRASQSVSSAVAWYQQKPGKAPKLLIYSASSLYSGVPSRFSGSRSGTDFTLTISSLQPEDFATYYCQQHYSLITFGQGTKVEIKR

More lines, now with the values behind:

B2: IgG B2B2: anti-BACE1 IgG of clone B2B2 (antibody, V domains shown)
VH: EVQLVESGGGLVQPGGSLRLSCAASGFNISSYYMHWVRQAPGKGLEWVASIYSSYGYTYYADSVKGRFTISADTSKNTAYLQMNSLRAEDTAVYYCARYWGYYAWFGSHPWAYGAFDYWGQGTLVTVSSAS
VL: DIQMTQSPSSLSASVGDRVTITCRASQSVSSAVAWYQQKPGKAPKLLIYSASSLYSGVPSRFSGSRSGTDFTLTISSLQPEDFATYYCQQYGYYLITFGQGTKVEIKR
Reduction of amyloid beta (Aβ40) production [3]: 80%

B3: Fab LH11: anti-MMP-12 antibody clone; VL SEQ ID NO:124, VH SEQ ID NO:126, CDR-H3 SEQ ID NO:129 (antibody, V domains shown)
VH: EVQLVESGGGLVQPGGSLRLSCAASGFNLSYYSMHWVRQAPGKGLEWVAYIYPYYGSTYYADSVKGRFTISADTSKNTAYLQMNSLRAEDTAVYYCARFLLSIGKLFVGDGSILHVWLYGMDYWGQGTLVTVSSAS
VL: DIQMTQSPSSLSASVGDRVTITCRASQSVSSAVAWYQQKPGKAPKLLIYSASSLYSGVPSRFSGSRSGTDFTLTISSLQPEDFATYYCQQAYYGYLFTFGQGTKVEIKR
Fibronectin remaining after cdMMP-12 wt hydrolysis (cdMMP-12 wt [4]): significant amounts of fibronectin remained | Kd (cdMMP-14): ~700 nM | Inhibition of elastin-FITC hydrolysis (cdMMP-12 wt [5]; 2 nM Fab): 0% | Inhibition of elastin-FITC hydrolysis (cdMMP-12 wt [5]; 16 nM Fab): 49% | Inhibition of elastin-FITC hydrolysis (cdMMP-12 wt [5]; 63 nM Fab): 62% | Inhibition of elastin-FITC hydrolysis (cdMMP-12 wt [5]; 500 nM Fab): 86% | Type of inhibition (Lineweaver-Burk) (cdMMP-12 mutant D4 [6]): substrate competitive manner | Ki (cdMMP-9 [7]): 6200 nM | Inhibition of MMP-7 (selectivity) (MMP-7): did not inhibit and non- | Inhibition of MMP-1 (selectivity) (MMP-1): did not inhibit and non- | Inhibition FRET peptide (cdMMP-12 wt [8]): non- | Fab remained intact after exposure to cdMMP-12 wt (cdMMP-12 wt [9]): 67% | Degradation of Fab by cdMMP-12 D4 (cdMMP-12 mutant D4 [10]): no significant degradation | Kd (cdMMP-9 [11]): 740 nM
